Measured values taken from EP3583122A1.
Like-named read-outs stand apart in the source and are kept apart here.

Key:
[1] = target: EBOV GP[change] (Ebola virus) (UniProt Q05320)
[2] = target: EBOV GP[change] (Ebola virus) (UniProt Q05320); remark: listed apart in the source
[3] = target: EBOV GP[change] (Ebola virus) (UniProt Q05320); remark: listed apart in the source
[4] = target: EBOV GP[change] (Ebola virus) (UniProt Q05320); remark: listed apart in the source
[5] = target: EBOV GP[change] (Ebola virus) (UniProt Q05320); remark: listed apart in the source
[6] = target: EBOV GP[change] (Ebola virus) (UniProt Q05320); remark: listed apart in the source
[7] = target: EBOV GP[change] (Ebola virus) (UniProt Q05320); remark: listed apart in the source
[8] = target: EBOV GP[change] (Ebola virus) (UniProt Q05320); remark: listed apart in the source
[9] = target: EBOV GP[change] (Ebola virus) (UniProt Q05320); remark: listed apart in the source
[10] = target: EBOV GP[change] (Ebola virus) (UniProt Q05320); remark: listed apart in the source
[11] = target: EBOV GP[change] (Ebola virus) (UniProt Q05320); remark: listed apart in the source

Chain of EBOV GP[change] (Ebola virus) (Q05320 33-501, chain 1 of 2): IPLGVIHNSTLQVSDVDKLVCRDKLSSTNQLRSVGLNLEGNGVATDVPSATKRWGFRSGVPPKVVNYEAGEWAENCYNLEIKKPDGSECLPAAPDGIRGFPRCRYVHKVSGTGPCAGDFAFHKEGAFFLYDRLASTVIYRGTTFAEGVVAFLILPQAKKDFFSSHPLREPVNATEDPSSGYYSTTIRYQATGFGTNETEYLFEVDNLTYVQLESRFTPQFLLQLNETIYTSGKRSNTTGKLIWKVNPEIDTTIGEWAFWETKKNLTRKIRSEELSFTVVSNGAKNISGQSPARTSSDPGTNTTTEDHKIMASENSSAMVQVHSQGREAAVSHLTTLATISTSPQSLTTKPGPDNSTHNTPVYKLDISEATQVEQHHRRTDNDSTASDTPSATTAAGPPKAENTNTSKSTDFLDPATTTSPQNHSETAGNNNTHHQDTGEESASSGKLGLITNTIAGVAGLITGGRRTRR
Chain of EBOV GP[change] (Ebola virus) (Q05320 502-650, chain 2 of 2): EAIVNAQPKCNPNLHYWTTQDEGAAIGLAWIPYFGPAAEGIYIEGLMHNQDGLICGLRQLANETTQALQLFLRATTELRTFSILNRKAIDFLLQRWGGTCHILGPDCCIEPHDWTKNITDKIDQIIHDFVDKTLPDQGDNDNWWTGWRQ

B1: PE-87 H108A (antibody, V domains shown)
VH: QVQLVQSGVTLVQPGGSLRVSCAASGFTFSSYAMSWVRQAPGKGLEWVSAISGLGGSTYYADSVKGRFTISRDNSKNTLYLQMNSLRAEDTAVYYCAKDHRVWAAGYAFDYWGQGALVTVSS
VL: DIVLTQSPSTLSASVGDRVTITCRASQSISSWLAWYQQKPGEAPKLLISDASSLESGVPSRFSGSGSGTEFTLTISSLQPDDFATYYCQQYYSSPTFGGGTKVEIK
Kd [1]: 18 nM

B2: PE-87 V102A (antibody, V domains shown)
VH: QVQLVQSGVTLVQPGGSLRVSCAASGFTFSSYAMSWVRQAPGKGLEWVSAISGLGGSTYYADSVKGRFTISRDNSKNTLYLQMNSLRAEDTAVYYCAKDHRAWAAGYHFDYWGQGALVTVSS
VL: DIVLTQSPSTLSASVGDRVTITCRASQSISSWLAWYQQKPGEAPKLLISDASSLESGVPSRFSGSGSGTEFTLTISSLQPDDFATYYCQQYYSSPTFGGGTKVEIK
Kd [2]: 4 nM

B3: PE-87 G106A (antibody, V domains shown)
VH: QVQLVQSGVTLVQPGGSLRVSCAASGFTFSSYAMSWVRQAPGKGLEWVSAISGLGGSTYYADSVKGRFTISRDNSKNTLYLQMNSLRAEDTAVYYCAKDHRVWAAAYHFDYWGQGALVTVSS
VL: DIVLTQSPSTLSASVGDRVTITCRASQSISSWLAWYQQKPGEAPKLLISDASSLESGVPSRFSGSGSGTEFTLTISSLQPDDFATYYCQQYYSSPTFGGGTKVEIK
Kd [3]: 0.03 nM

B4: PE-87 D99A (antibody, V domains shown)
VH: QVQLVQSGVTLVQPGGSLRVSCAASGFTFSSYAMSWVRQAPGKGLEWVSAISGLGGSTYYADSVKGRFTISRDNSKNTLYLQMNSLRAEDTAVYYCAKAHRVWAAGYHFDYWGQGALVTVSS
VL: DIVLTQSPSTLSASVGDRVTITCRASQSISSWLAWYQQKPGEAPKLLISDASSLESGVPSRFSGSGSGTEFTLTISSLQPDDFATYYCQQYYSSPTFGGGTKVEIK
Kd [4]: 74 nM

B5: PE-87 Y107A (antibody, V domains shown)
VH: QVQLVQSGVTLVQPGGSLRVSCAASGFTFSSYAMSWVRQAPGKGLEWVSAISGLGGSTYYADSVKGRFTISRDNSKNTLYLQMNSLRAEDTAVYYCAKDHRVWAAGAHFDYWGQGALVTVSS
VL: DIVLTQSPSTLSASVGDRVTITCRASQSISSWLAWYQQKPGEAPKLLISDASSLESGVPSRFSGSGSGTEFTLTISSLQPDDFATYYCQQYYSSPTFGGGTKVEIK
Kd [5]: 30 nM

B6: PE-87 H100A (antibody, V domains shown)
VH: QVQLVQSGVTLVQPGGSLRVSCAASGFTFSSYAMSWVRQAPGKGLEWVSAISGLGGSTYYADSVKGRFTISRDNSKNTLYLQMNSLRAEDTAVYYCAKDARVWAAGYHFDYWGQGALVTVSS
VL: DIVLTQSPSTLSASVGDRVTITCRASQSISSWLAWYQQKPGEAPKLLISDASSLESGVPSRFSGSGSGTEFTLTISSLQPDDFATYYCQQYYSSPTFGGGTKVEIK
Kd [6]: 4.5 nM

B7: PE-87 F109A (antibody, V domains shown)
VH: QVQLVQSGVTLVQPGGSLRVSCAASGFTFSSYAMSWVRQAPGKGLEWVSAISGLGGSTYYADSVKGRFTISRDNSKNTLYLQMNSLRAEDTAVYYCAKDHRVWAAGYHADYWGQGALVTVSS
VL: DIVLTQSPSTLSASVGDRVTITCRASQSISSWLAWYQQKPGEAPKLLISDASSLESGVPSRFSGSGSGTEFTLTISSLQPDDFATYYCQQYYSSPTFGGGTKVEIK
Kd [7]: 37 nM

B8: PE-87 W103A (antibody, V domains shown)
VH: QVQLVQSGVTLVQPGGSLRVSCAASGFTFSSYAMSWVRQAPGKGLEWVSAISGLGGSTYYADSVKGRFTISRDNSKNTLYLQMNSLRAEDTAVYYCAKDHRVAAAGYHFDYWGQGALVTVSS
VL: DIVLTQSPSTLSASVGDRVTITCRASQSISSWLAWYQQKPGEAPKLLISDASSLESGVPSRFSGSGSGTEFTLTISSLQPDDFATYYCQQYYSSPTFGGGTKVEIK
Kd [8]: 1.3 nM

B9: PE-87 D110A (antibody, V domains shown)
VH: QVQLVQSGVTLVQPGGSLRVSCAASGFTFSSYAMSWVRQAPGKGLEWVSAISGLGGSTYYADSVKGRFTISRDNSKNTLYLQMNSLRAEDTAVYYCAKDHRVWAAGYHFAYWGQGALVTVSS
VL: DIVLTQSPSTLSASVGDRVTITCRASQSISSWLAWYQQKPGEAPKLLISDASSLESGVPSRFSGSGSGTEFTLTISSLQPDDFATYYCQQYYSSPTFGGGTKVEIK
Kd [9]: 1.3 nM

B10: PE-87 R101A (antibody, V domains shown)
VH: QVQLVQSGVTLVQPGGSLRVSCAASGFTFSSYAMSWVRQAPGKGLEWVSAISGLGGSTYYADSVKGRFTISRDNSKNTLYLQMNSLRAEDTAVYYCAKDHAVWAAGYHFDYWGQGALVTVSS
VL: DIVLTQSPSTLSASVGDRVTITCRASQSISSWLAWYQQKPGEAPKLLISDASSLESGVPSRFSGSGSGTEFTLTISSLQPDDFATYYCQQYYSSPTFGGGTKVEIK
Kd [10]: 9.4 nM

B11: PE-87 Y111A (antibody, V domains shown)
VH: QVQLVQSGVTLVQPGGSLRVSCAASGFTFSSYAMSWVRQAPGKGLEWVSAISGLGGSTYYADSVKGRFTISRDNSKNTLYLQMNSLRAEDTAVYYCAKDHRVWAAGYHFDAWGQGALVTVSS
VL: DIVLTQSPSTLSASVGDRVTITCRASQSISSWLAWYQQKPGEAPKLLISDASSLESGVPSRFSGSGSGTEFTLTISSLQPDDFATYYCQQYYSSPTFGGGTKVEIK
Kd [11]: 5.9 nM
